Patent publication US20230302148A1, “PHARMACEUTICAL COMPOSITION COMPRISING LONG-ACTING CONJUGATE OF TRIPLE GLUCAGON/GLP-1/GIP RECEPTOR AGONIST” (HANMI PHARM. CO., LTD., priority 2020, published 2023)
Bridges are numbered along the chain shown (N, C = ends). Where no end group is shown, it is not given here. [ ]: non-standard residue; d: D form. The star is where a group is joined. Acetyl(2-(4-imidazolyl)) = O=C(Cc1c[nH]cn1)*; Aib = CC(C)(N)C(=O)O

target: T1, human GIP receptor (human, UniProt P48546 22-466); test: cell-based or functional assay
T1 sequence (looked up): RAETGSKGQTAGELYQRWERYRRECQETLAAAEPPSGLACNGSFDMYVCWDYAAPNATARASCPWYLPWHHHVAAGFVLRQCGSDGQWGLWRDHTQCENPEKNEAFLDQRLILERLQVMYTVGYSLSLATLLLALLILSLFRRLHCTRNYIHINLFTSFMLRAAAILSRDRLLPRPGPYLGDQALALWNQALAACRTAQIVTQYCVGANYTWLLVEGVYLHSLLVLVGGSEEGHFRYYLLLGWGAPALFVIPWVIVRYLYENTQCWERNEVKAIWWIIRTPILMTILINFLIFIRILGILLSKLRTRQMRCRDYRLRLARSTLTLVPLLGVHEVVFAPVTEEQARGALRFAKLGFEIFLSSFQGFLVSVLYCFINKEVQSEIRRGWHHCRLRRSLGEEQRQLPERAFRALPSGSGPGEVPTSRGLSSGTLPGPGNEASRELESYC

Row | Binder | In vitro activity relative to native peptide (%) vs. GIP
1 | HGQGTFTSDCSKYLDGQRAQDFVNWLLAGGPSSGAPPPS [triple agonist of SEQ ID NO: 48] | < 0.1%
2 | H[Aib]QGTFTSDVSSYLDGQAAKEFVAWLLKGC [triple agonist of SEQ ID NO: 6] | < 0.1%
3 | [Acetyl(2-(4-imidazolyl))][Aib]QGTFTSDYSICMDEIHQKDFVNWLLNTK (bridge 16-20; not fully specified) [triple agonist of SEQ ID NO: 49] | 3.3%
4 | H[Aib]EGTFTSDYSIAMDEIHQKDFVNWLLAQC (bridge 16-20) [triple agonist of SEQ ID NO: 53] | 1.3%
5 | H[Aib]QGTFTSDYSKYLDEKRQKEFVQWLLDTC (bridge 16-20) [triple agonist of SEQ ID NO: 52] | 0.3%
6 | H[Aib]QGTFTSDYSKYLDEKRQKEFVNWLLAQKC (bridge 16-20) [triple agonist of SEQ ID NO: 34] | 0.6%
7 | Y[Aib]QGTFTSDYSKYLDEKRAKEFVQWLLDHHPSSGQPPPSC (bridge 16-20) [triple agonist of SEQ ID NO: 42] | 7.8%
8 | H[Aib]QGTFTSDVSSYLDGQAAKEFIAWLVKGC [triple agonist of SEQ ID NO: 1] | < 0.1%
9 | H[Aib]QGTFTSDKSKYLDERACQDFVQWLLDGGPSSGAPPPS [triple agonist of SEQ ID NO: 40] | < 0.1%
10 | H[Aib]QGTFTSDVSSYLLGQQQKEFIAWLVKGGGPSSGAPPPSC [triple agonist of SEQ ID NO: 5] | < 0.1%
11 | [Acetyl(2-(4-imidazolyl))][Aib]QGTFTSDKSSYLDERAAQDFVQWLLDGGPSSGAPPPSS (not fully specified) [triple agonist of SEQ ID NO: 38] | 1%
12 | H[Aib]QGTFTSDYSIAMDEIHQKDFVNWLLNTKC (bridge 16-20) [triple agonist of SEQ ID NO: 35] | 1.3%

target: human GLP-1 receptor (human, UniProt P43220 24-463); test: cell-based or functional assay

Row | Binder | In vitro activity relative to native peptide (%) vs. GLP-1
13 | HGQGTFTSDCSKYLDGQRAQDFVNWLLAGGPSSGAPPPS [triple agonist of SEQ ID NO: 48] | 1.5%
14 | H[Aib]QGTFTSDVSSYLDGQAAKEFVAWLLKGC [triple agonist of SEQ ID NO: 6] | 17%
15 | [Acetyl(2-(4-imidazolyl))][Aib]QGTFTSDYSICMDEIHQKDFVNWLLNTK (bridge 16-20; not fully specified) [triple agonist of SEQ ID NO: 49] | 29.8%
16 | H[Aib]EGTFTSDYSIAMDEIHQKDFVNWLLAQC (bridge 16-20) [triple agonist of SEQ ID NO: 53] | 161%
17 | H[Aib]QGTFTSDYSKYLDEKRQKEFVQWLLDTC (bridge 16-20) [triple agonist of SEQ ID NO: 52] | 44.1%
18 | H[Aib]QGTFTSDYSKYLDEKRQKEFVNWLLAQKC (bridge 16-20) [triple agonist of SEQ ID NO: 34] | 19.1%
19 | Y[Aib]QGTFTSDYSKYLDEKRAKEFVQWLLDHHPSSGQPPPSC (bridge 16-20) [triple agonist of SEQ ID NO: 42] | 33.9%
20 | H[Aib]QGTFTSDVSSYLDGQAAKEFIAWLVKGC [triple agonist of SEQ ID NO: 1] | 3.2%
21 | H[Aib]QGTFTSDKSKYLDERACQDFVQWLLDGGPSSGAPPPS [triple agonist of SEQ ID NO: 40] | 75.2%
22 | H[Aib]QGTFTSDVSSYLLGQQQKEFIAWLVKGGGPSSGAPPPSC [triple agonist of SEQ ID NO: 5] | 42.1%
23 | [Acetyl(2-(4-imidazolyl))][Aib]QGTFTSDKSSYLDERAAQDFVQWLLDGGPSSGAPPPSS (not fully specified) [triple agonist of SEQ ID NO: 38] | 2.3%
24 | H[Aib]QGTFTSDYSIAMDEIHQKDFVNWLLNTKC (bridge 16-20) [triple agonist of SEQ ID NO: 35] | 7.5%

target: human GCG receptor (human, UniProt P47871 26-477); test: cell-based or functional assay
Sequence (P47871 26-477): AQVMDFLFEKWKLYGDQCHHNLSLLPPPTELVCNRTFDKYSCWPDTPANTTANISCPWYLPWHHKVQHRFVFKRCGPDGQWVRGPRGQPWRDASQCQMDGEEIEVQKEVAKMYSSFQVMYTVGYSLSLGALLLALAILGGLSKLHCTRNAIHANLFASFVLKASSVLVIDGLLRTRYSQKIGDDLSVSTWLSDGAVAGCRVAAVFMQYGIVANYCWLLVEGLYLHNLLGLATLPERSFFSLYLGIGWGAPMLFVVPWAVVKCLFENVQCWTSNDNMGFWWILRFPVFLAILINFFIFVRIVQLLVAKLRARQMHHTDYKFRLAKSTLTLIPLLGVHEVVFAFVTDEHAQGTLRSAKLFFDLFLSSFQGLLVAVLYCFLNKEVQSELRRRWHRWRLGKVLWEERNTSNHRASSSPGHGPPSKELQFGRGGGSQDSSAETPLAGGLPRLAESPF

Row | Binder | In vitro activity relative to native peptide (%) vs. Glucagon
25 | HGQGTFTSDCSKYLDGQRAQDFVNWLLAGGPSSGAPPPS [triple agonist of SEQ ID NO: 48] | < 0.1%
26 | H[Aib]QGTFTSDVSSYLDGQAAKEFVAWLLKGC [triple agonist of SEQ ID NO: 6] | < 0.1%
27 | [Acetyl(2-(4-imidazolyl))][Aib]QGTFTSDYSICMDEIHQKDFVNWLLNTK (bridge 16-20; not fully specified) [triple agonist of SEQ ID NO: 49] | < 0.1%
28 | H[Aib]EGTFTSDYSIAMDEIHQKDFVNWLLAQC (bridge 16-20) [triple agonist of SEQ ID NO: 53] | 8.4%
29 | H[Aib]QGTFTSDYSKYLDEKRQKEFVQWLLDTC (bridge 16-20) [triple agonist of SEQ ID NO: 52] | 7.5%
30 | H[Aib]QGTFTSDYSKYLDEKRQKEFVNWLLAQKC (bridge 16-20) [triple agonist of SEQ ID NO: 34] | 0.92%
31 | Y[Aib]QGTFTSDYSKYLDEKRAKEFVQWLLDHHPSSGQPPPSC (bridge 16-20) [triple agonist of SEQ ID NO: 42] | 206%
32 | H[Aib]QGTFTSDVSSYLDGQAAKEFIAWLVKGC [triple agonist of SEQ ID NO: 1] | < 0.1%
33 | H[Aib]QGTFTSDKSKYLDERACQDFVQWLLDGGPSSGAPPPS [triple agonist of SEQ ID NO: 40] | < 0.1%
34 | H[Aib]QGTFTSDVSSYLLGQQQKEFIAWLVKGGGPSSGAPPPSC [triple agonist of SEQ ID NO: 5] | < 0.1%
35 | [Acetyl(2-(4-imidazolyl))][Aib]QGTFTSDKSSYLDERAAQDFVQWLLDGGPSSGAPPPSS (not fully specified) [triple agonist of SEQ ID NO: 38] | 1%
36 | H[Aib]QGTFTSDYSIAMDEIHQKDFVNWLLNTKC (bridge 16-20) [triple agonist of SEQ ID NO: 35] | < 0.1%
